Results on 4 molecules are retold here after patent US20140087995A1 (published 2014).

Numbered stars: 1 amine (or outer) side, 2 acyl side, 3 side chain; on linkers, the order of the positions; unused ones are H or OH. Bridge positions count the residues as written; N and C are the ends. Side chains are listed from the residue outwards. Ends that are not written are not given here. * marks the point of attachment. C20 diacid = O=C(O)CCCCCCCCCCCCCCCCCCC(=O)*; γGlu = O=C(O)[C@H](CCC(=O)[*:2])N[*:1]; AEEA = NCCOCCOCC(=O)O

Assay [1] deals with T1, human calcitonin receptor (human, UniProt P30988 25-474).
T1 sequence (looked up): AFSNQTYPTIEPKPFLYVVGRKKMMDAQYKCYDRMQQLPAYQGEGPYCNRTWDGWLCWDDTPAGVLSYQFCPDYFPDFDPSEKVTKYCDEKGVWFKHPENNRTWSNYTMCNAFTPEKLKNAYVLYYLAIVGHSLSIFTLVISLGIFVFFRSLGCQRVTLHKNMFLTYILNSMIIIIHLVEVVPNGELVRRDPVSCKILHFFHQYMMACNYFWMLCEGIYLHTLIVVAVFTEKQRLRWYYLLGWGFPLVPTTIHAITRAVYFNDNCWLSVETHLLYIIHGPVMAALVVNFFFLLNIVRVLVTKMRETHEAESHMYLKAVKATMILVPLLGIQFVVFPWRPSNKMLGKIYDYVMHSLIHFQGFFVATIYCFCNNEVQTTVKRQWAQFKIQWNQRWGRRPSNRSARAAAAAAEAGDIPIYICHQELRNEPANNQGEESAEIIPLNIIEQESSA
Kind of assay: cell-based or functional assay.

Assay [2] deals with T2, human amylin receptor (amylin 3(a) receptor: human calcitonin receptor plus RAMP-3) (human, UniProt P30988 25-474; O60896 24-148, limits assumed).
T2 sequence (looked up) 1: T1 sequence (looked up)
T2 sequence (looked up) 2: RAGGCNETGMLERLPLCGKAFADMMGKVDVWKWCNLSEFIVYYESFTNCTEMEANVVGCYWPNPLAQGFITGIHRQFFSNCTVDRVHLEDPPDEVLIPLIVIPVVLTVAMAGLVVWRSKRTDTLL
Kind of assay: cell-based or functional assay.

B1: N^ε-[(4S)-4-carboxy-4-(19-carboxynonadecanoylamino)butanoyl]Lys[Arg1,Arg17,Pro21,Pro27,His35]-h-amylin (peptide)
peptide: K([γGlu-C20 diacid])RCNTATCATQRLANFLRHSSPNFGAIPSSTNVGSHTY-NH2
modifications: disulfide 3-8; N-terminus assumed
SMILES: CC[C@H](C)[C@H](NC(=O)[C@H](C)NC(=O)CNC(=O)[C@H](Cc1ccccc1)NC(=O)[C@H](CC(N)=O)NC(=O)[C@@H]1CCCN1C(=O)[C@H](CO)NC(=O)[C@H](CO)NC(=O)[C@H](Cc1c[nH]cn1)NC(=O)[C@H](CCCNC(=N)N)NC(=O)[C@H](CC(C)C)NC(=O)[C@H](Cc1ccccc1)NC(=O)[C@H](CC(N)=O)NC(=O)[C@H](C)NC(=O)[C@H](CC(C)C)NC(=O)[C@H](CCCNC(=N)N)NC(=O)[C@H](CCC(N)=O)NC(=O)[C@@H](NC(=O)[C@H](C)NC(=O)[C@@H]1CSSC[C@H](NC(=O)[C@H](CCCNC(=N)N)NC(=O)[C@@H](N)CCCCNC(=O)CC[C@H](NC(=O)CCCCCCCCCCCCCCCCCCC(=O)O)C(=O)O)C(=O)N[C@@H](CC(N)=O)C(=O)N[C@@H]([C@@H](C)O)C(=O)N[C@@H](C)C(=O)N[C@@H]([C@@H](C)O)C(=O)N1)[C@@H](C)O)C(=O)N1CCC[C@H]1C(=O)N[C@@H](CO)C(=O)N[C@@H](CO)C(=O)N[C@H](C(=O)N[C@@H](CC(N)=O)C(=O)N[C@H](C(=O)NCC(=O)N[C@@H](CO)C(=O)N[C@@H](Cc1c[nH]cn1)C(=O)N[C@H](C(=O)N[C@@H](Cc1ccc(O)cc1)C(N)=O)[C@@H](C)O)C(C)C)[C@@H](C)O
notes: also called compound 44
B1: in assay [1], the “Ratio hCT/hAmylin funct. (hCTR EC50 against hAmylin-R EC50)” value is 24 and the “hCTR funct. EC50” value worked out at 4.75 nM. Moreover, the “hAmylin-R funct. EC50” value in assay [2] was found to be 0.198 nM.

B2: N^-1-[(4S)-4-carboxy-4-(19-carboxynonadecanoylamino)butanoyl]-Gly[Arg1,Arg17,Pro21,Pro27]-h-amylin (peptide)
peptide: {C20 diacid-γGlu}-GRCNTATCATQRLANFLRHSSPNFGAIPSSTNVGSNTY-NH2
modifications: disulfide 3-8
SMILES: CC[C@H](C)[C@H](NC(=O)[C@H](C)NC(=O)CNC(=O)[C@H](Cc1ccccc1)NC(=O)[C@H](CC(N)=O)NC(=O)[C@@H]1CCCN1C(=O)[C@H](CO)NC(=O)[C@H](CO)NC(=O)[C@H](Cc1c[nH]cn1)NC(=O)[C@H](CCCNC(=N)N)NC(=O)[C@H](CC(C)C)NC(=O)[C@H](Cc1ccccc1)NC(=O)[C@H](CC(N)=O)NC(=O)[C@H](C)NC(=O)[C@H](CC(C)C)NC(=O)[C@H](CCCNC(=N)N)NC(=O)[C@H](CCC(N)=O)NC(=O)[C@@H](NC(=O)[C@H](C)NC(=O)[C@@H]1CSSC[C@H](NC(=O)[C@H](CCCNC(=N)N)NC(=O)CNC(=O)CC[C@H](NC(=O)CCCCCCCCCCCCCCCCCCC(=O)O)C(=O)O)C(=O)N[C@@H](CC(N)=O)C(=O)N[C@@H]([C@@H](C)O)C(=O)N[C@@H](C)C(=O)N[C@@H]([C@@H](C)O)C(=O)N1)[C@@H](C)O)C(=O)N1CCC[C@H]1C(=O)N[C@@H](CO)C(=O)N[C@@H](CO)C(=O)N[C@H](C(=O)N[C@@H](CC(N)=O)C(=O)N[C@H](C(=O)NCC(=O)N[C@@H](CO)C(=O)N[C@@H](CC(N)=O)C(=O)N[C@H](C(=O)N[C@@H](Cc1ccc(O)cc1)C(N)=O)[C@@H](C)O)C(C)C)[C@@H](C)O
notes: also called compound 46
B2: in assay [1], the “Ratio hCT/hAmylin funct. (hCTR EC50 against hAmylin-R EC50)” value was 10.2 and the “hCTR funct. EC50” value came out at 0.899 nM. For the same molecule, the “hAmylin-R funct. EC50” value in assay [2] was determined as 0.088 nM.

B3: N^α1-[2-[2-[2-[[2-[2-[2-[[(4S)-4-carboxy-4-(19-carboxynonadecanoylamino)butanoyl]amino]ethoxy]ethoxy]acetyl]amino]ethoxy]ethoxy]acetyl]-[Glu14,Arg17,Pro21,Pro27 … (peptide)
peptide: KCNTATCATQRLAEFLRHSSPNFGAIPSSTNVGSNTY
modifications: C20 diacid-gGlu-2xOEG on the alpha amino group of the N-terminal residue; Cys2-Cys7 disulfide and C-terminal amide as in human amylin
notes: also called compound 19
In the case of B3, in assay [1], the “Ratio hCT/hAmylin funct. (hCTR EC50 against hAmylin-R EC50)” value turned out to be 17.4 and the “hCTR funct. EC50” value is 5.32 nM. The “hAmylin-R funct. EC50” value in assay [2] was 0.307 nM.

B4: N^ε-[2-[2-[2-[[(4S)-4-carboxy-4-(19-carboxynonadecanoylamino)butanoyl]amino]ethoxy]ethoxy]acetyl]Lys[Arg1,Arg17,Pro21,Pro27,His35]-h-amylin (peptide)
peptide: K([AEEA-γGlu-C20 diacid])RCNTATCATQRLANFLRHSSPNFGAIPSSTNVGSHTY-NH2
modifications: disulfide 3-8; N-terminus assumed
SMILES: CC[C@H](C)[C@H](NC(=O)[C@H](C)NC(=O)CNC(=O)[C@H](Cc1ccccc1)NC(=O)[C@H](CC(N)=O)NC(=O)[C@@H]1CCCN1C(=O)[C@H](CO)NC(=O)[C@H](CO)NC(=O)[C@H](Cc1c[nH]cn1)NC(=O)[C@H](CCCNC(=N)N)NC(=O)[C@H](CC(C)C)NC(=O)[C@H](Cc1ccccc1)NC(=O)[C@H](CC(N)=O)NC(=O)[C@H](C)NC(=O)[C@H](CC(C)C)NC(=O)[C@H](CCCNC(=N)N)NC(=O)[C@H](CCC(N)=O)NC(=O)[C@@H](NC(=O)[C@H](C)NC(=O)[C@@H]1CSSC[C@H](NC(=O)[C@H](CCCNC(=N)N)NC(=O)[C@@H](N)CCCCNC(=O)COCCOCCNC(=O)CC[C@H](NC(=O)CCCCCCCCCCCCCCCCCCC(=O)O)C(=O)O)C(=O)N[C@@H](CC(N)=O)C(=O)N[C@@H]([C@@H](C)O)C(=O)N[C@@H](C)C(=O)N[C@@H]([C@@H](C)O)C(=O)N1)[C@@H](C)O)C(=O)N1CCC[C@H]1C(=O)N[C@@H](CO)C(=O)N[C@@H](CO)C(=O)N[C@H](C(=O)N[C@@H](CC(N)=O)C(=O)N[C@H](C(=O)NCC(=O)N[C@@H](CO)C(=O)N[C@@H](Cc1c[nH]cn1)C(=O)N[C@H](C(=O)N[C@@H](Cc1ccc(O)cc1)C(N)=O)[C@@H](C)O)C(C)C)[C@@H](C)O
notes: also called compound 45
With B4, in assay [1], the “Ratio hCT/hAmylin funct. (hCTR EC50 against hAmylin-R EC50)” value was 17 and the “hCTR funct. EC50” value was found to be 10.1 nM. Further, the “hAmylin-R funct. EC50” value in assay [2] came to 0.594 nM.
